For one molecule, ΔH results are on record in paper PMC3078936 (PLoS ONE, 2011).

The target in the assay is T1, DYNLL1 (Homo sapiens, UniProt P63167).
T1 construct: 6xHis (N); made in house; host or cells: E. coli BL21(DE3)Star
As to the kind of experiment: Isothermal titration calorimetry of peptide/protein binding to DYNLL1. To be noted: ITC binding enthalpy, PBS + 3 mM 2-mercaptoethanol pH 7.4, 299 K. The method, then: Binding parameters of the in vitro evolved Ac-[…] and naturally evolved Ac-DKSTQTD consensus peptides were determined by isothermal titration calorimetry (ITC). Synthetic peptides were used and N-terminal acetylation was applied to better mimic a non-terminal peptide motif by avoiding the positively charged N-terminus. In order to elucidate the particular contribution of Val-5 to the binding affinity, several control peptides were produced. The in vitro evolved Val-5 was replaced with a glycine (Gly-5) to assess side chain function. In a further truncated variant the entire amino acid residue was replaced with an acetate group (Ac-5) to assess the function of the amide group at position −5. The same variations of Val-5, Gly-5 or Ac-5 were also introduced in the framework of the naturally evolved consensus peptide. DYNNL1 binding of all six variants was analyzed by ITC. In all measurements the stoichiometry of binding was 1∶1 (2 peptides binding to one homodimer DYNNL1). […]
All peptides and DYNLL1 were dialyzed overnight in PBS buffer supplemented with 3 mM 2-mercaptoethanol (pH 7.4). […] For each experiment the thermodynamic parameters were determined at 299 K. We used a VP-ITC instrument from Microcal and the data were fitted by the software package Origin 5.0 (OriginLab) using the simple A + B to AB binding model. […]
On the technique in general: Isothermal titration calorimetry measures the heat released or taken up as one component is titrated into another.

T1 sequence (P63167 whole entry): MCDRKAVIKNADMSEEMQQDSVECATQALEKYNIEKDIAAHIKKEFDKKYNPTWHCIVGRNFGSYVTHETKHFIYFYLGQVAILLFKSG

B1: EML3 (8-94): recombinant fragment of EML3 (residues 8–94) containing a coiled coil domain and the in vitro evolved consensus motif (protein, UniProt Q32P44 8-94, looked up, fragment)
chain: GDGPAREALQSLSQRLRVQEQEMELVKAALAEALRLLRLQVPPSSLQGSGTPAPPGDSLAAPPGLPPTCTPSLVSRGTQTETEVELK
With B1, the ΔH is -7.74 kcal/mol.
